Article PMC3561583

Biological target: FLAG-Sur1 (UniProt Q09427)
Experiment: FRET or BRET

Chain of UniProt Q09427 (Q09427 whole entry): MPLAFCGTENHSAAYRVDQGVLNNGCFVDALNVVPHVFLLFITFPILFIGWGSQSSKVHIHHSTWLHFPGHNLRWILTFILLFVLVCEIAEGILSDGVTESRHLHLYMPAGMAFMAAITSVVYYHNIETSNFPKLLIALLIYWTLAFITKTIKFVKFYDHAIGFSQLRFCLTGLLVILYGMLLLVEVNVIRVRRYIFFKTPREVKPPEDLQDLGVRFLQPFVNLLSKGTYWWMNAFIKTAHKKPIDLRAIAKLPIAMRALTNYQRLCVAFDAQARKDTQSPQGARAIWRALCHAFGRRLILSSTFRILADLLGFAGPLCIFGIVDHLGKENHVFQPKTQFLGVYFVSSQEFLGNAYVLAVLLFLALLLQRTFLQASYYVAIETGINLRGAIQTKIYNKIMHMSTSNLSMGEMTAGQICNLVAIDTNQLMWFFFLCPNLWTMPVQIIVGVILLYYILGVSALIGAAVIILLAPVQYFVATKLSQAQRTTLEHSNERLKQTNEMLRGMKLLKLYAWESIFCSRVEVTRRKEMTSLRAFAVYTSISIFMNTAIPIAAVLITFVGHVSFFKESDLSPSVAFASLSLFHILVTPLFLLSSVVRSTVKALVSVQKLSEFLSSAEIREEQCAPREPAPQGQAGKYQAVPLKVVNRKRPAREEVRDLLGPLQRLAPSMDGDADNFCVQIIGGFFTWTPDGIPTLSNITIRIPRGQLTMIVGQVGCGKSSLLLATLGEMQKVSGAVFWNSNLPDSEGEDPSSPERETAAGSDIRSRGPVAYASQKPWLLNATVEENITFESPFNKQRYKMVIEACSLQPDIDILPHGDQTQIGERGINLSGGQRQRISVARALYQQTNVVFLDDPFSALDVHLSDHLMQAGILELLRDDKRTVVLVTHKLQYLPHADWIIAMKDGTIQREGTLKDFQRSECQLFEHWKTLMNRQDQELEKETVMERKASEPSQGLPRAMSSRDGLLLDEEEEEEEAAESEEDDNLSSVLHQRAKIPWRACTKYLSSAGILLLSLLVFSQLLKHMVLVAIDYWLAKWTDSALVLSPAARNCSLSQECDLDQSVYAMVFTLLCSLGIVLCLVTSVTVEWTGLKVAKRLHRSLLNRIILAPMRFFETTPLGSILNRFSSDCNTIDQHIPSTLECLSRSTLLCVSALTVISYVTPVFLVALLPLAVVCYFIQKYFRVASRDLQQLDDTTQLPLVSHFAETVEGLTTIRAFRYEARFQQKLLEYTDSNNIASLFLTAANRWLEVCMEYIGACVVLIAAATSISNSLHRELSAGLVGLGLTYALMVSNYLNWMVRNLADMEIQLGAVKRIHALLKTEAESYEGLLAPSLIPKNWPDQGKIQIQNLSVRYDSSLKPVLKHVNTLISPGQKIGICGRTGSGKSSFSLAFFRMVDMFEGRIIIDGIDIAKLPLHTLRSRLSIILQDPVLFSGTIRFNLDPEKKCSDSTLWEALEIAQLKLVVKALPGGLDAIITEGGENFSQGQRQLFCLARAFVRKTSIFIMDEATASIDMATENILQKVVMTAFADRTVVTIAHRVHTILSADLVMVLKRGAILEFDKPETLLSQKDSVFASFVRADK

FRET efficiency at steady state: 11%
Substance: Myc-Trpm4 (from UniProt Q7TN37-1 1-1213) (natural protein)
